The text below walks through data of article doi:10.1101/2022.11.10.515920.

Experiment [1] has as its target commercial adalimumab reference product from CHO cells (Humira). Kind of experiment: SPR.
In experiment [2] the target is adalimumab produced in BY-2 lysate. Briefly: SPR. For orientation: In SPR one partner is held on a chip, and binding of the other changes the refractive index at the surface.

human FcR I (CD64), sequence (P12314 16-292): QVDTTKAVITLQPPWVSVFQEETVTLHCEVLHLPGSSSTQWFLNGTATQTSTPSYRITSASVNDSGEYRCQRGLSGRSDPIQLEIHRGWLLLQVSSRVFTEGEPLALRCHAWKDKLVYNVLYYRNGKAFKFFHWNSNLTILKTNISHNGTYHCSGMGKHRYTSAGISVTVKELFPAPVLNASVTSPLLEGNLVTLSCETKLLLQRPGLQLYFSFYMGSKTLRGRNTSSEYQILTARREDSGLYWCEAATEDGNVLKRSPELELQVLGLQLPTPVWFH

With “human FcR I (CD64) (from UniProt P12314) (receptor)”, the values for the Kd in experiment [1] and in experiment [2] were 0.158 nM and 0.353 nM, respectively.

In general, Kd refers to the equilibrium constant for the complex coming apart. High values mean lower affinity, low ones higher affinity.
